These are literature values, as cited in patent publication US7435406B2, “Methods for conducting metabolic analyses” (Target Discovery, Inc., priority 1999, dated 2008).

The conditions of this series: protein standards obtained from Sigma-Aldrich.

In the case of “Carbonic anhydrase II: protein standard from Sigma-Aldrich, Cat # T 6522”, the pl is 4.5.

B1: Bovine ribonuclease A: protein standard from Sigma-Aldrich, Cat # R 5503 (protein, UniProt P61823 27-150, looked up)
Ribonuclease pancreatic: KETAAAKFERQHMDSSTSAASSSNYCNQMMKSRNLTKDRCKPVNTFVHESLADVQAVCSQKNVACKNGQTNCYQSYSTMSITDCRETGSSKYPNCAYKTTQANKHIIVACEGNPYVPVHFDASV
On to B1, for which the pl was 9.6.
